Biological target: the molecule itself
Assay: SDS-PAGE with immunoblot (oligomer resistant to SDS); purified FoF1 on 16% polyacrylamide gels, immunoblot with anti-c-subunit antibodies; the c subunit runs as a ring above the α subunit

B1: c subunit of FoF1 ATP synthase of Synechocystis sp. PCC 6803 (natural protein, Synechocystis sp. PCC 6803 (endogenous), UniProt P27182 1-81, looked up)
chain: MDSTVAAASVIAAALAVGLGAIGPGIGQGNASGQAVSGIARQPEAEGKIRGTLLLTLAFMESLTIYGLVIALVLLFANPFA
notes: ATP synthase c subunit, Synechocystis sp; Forms the c-ring; also called ssl2615; c-ring; source: endogenous, Synechocystis sp
B1: binds.
